In this test the target is T1, human TfR apical domain (human).
T1 chain: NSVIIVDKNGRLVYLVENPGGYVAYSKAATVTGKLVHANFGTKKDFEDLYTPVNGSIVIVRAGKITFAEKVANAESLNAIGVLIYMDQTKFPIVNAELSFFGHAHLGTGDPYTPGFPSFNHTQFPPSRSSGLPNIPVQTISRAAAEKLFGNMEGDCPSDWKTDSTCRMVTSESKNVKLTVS
Description: SPR.

B1: 35.d1.12 (protein)
chain: ASTKGPSVFPLAPSSKSTSGGTAALGCLVKDYFPEPVTVSWNSGALTSGVHTFPAVLQSSGLYSLSSVVTVPSSSLGTQTYICNVNHKPSNTKVDKKVEPKSCDKTHTCPPCPAPELLGGPSVFLFPPKPKDTLMISRTPEVTCVVVDVSHEDPEVKFNWYVDGVEVHNAKTKPREEQYNSTYRVVSVLTVLHQDWLNGKEYKCKVSNKALPAPIEKTISKAKGQPREPQVYTLPPSRDELTKNQVSLTCLVKGFYPSDIAVEWESFGTEWSNYKTTPPVLDSDGSFFLYSKLTVSKSEWQQGFVFSCSVMHEALHNHYTQKSLSLSPELQLEESCAEAQDGELDGLWTT
B1 registered a dissociation constant Kd of 1.6 µM.

B2: 35.d1.8 (protein)
chain: ASTKGPSVFPLAPSSKSTSGGTAALGCLVKDYFPEPVTVSWNSGALTSGVHTFPAVLQSSGLYSLSSVVTVPSSSLGTQTYICNVNHKPSNTKVDKKVEPKSCDKTHTCPPCPAPELLGGPSVFLFPPKPKDTLMISRTPEVTCVVVDVSHEDPEVKFNWYVDGVEVHNAKTKPREEQYNSTYRVVSVLTVLHQDWLNGKEYKCKVSNKALPAPIEKTISKAKGQPREPQVYTLPPSRDELTKNQVSLTCLVKGFYPSDIAVEWESYGNEWSNYKTTPPVLDSDGSFFLYSKLTVTKSEWQQGFVFSCSVMHEALHNHYTQKSLSLSPELQLEESCAEAQDGELDGLWTT
B2 registered a Kd of 13.2 µM.

B3: 35.d1.13 (protein)
chain: ASTKGPSVFPLAPSSKSTSGGTAALGCLVKDYFPEPVTVSWNSGALTSGVHTFPAVLQSSGLYSLSSVVTVPSSSLGTQTYICNVNHKPSNTKVDKKVEPKSCDKTHTCPPCPAPELLGGPSVFLFPPKPKDTLMISRTPEVTCVVVDVSHEDPEVKFNWYVDGVEVHNAKTKPREEQYNSTYRVVSVLTVLHQDWLNGKEYKCKVSNKALPAPIEKTISKAKGQPREPQVYTLPPSRDELTKNQVSLTCLVKGFYPSDIAVEWESYGNEWSNYKTTPPVLDSDGSFFLYSKLTVSKSEWQQGFVFSCSVMHEALHNHYTQKSLSLSPELQLEESCAEAQDGELDGLWTT
B3 came in with a Kd of 18.5 µM.

B4: CH3C.1.35 (protein)
chain: ASTKGPSVFPLAPSSKSTSGGTAALGCLVKDYFPEPVTVSWNSGALTSGVHTFPAVLQSSGLYSLSSVVTVPSSSLGTQTYICNVNHKPSNTKVDKKVEPKSCDKTHTCPPCPAPELLGGPSVFLFPPKPKDTLMISRTPEVTCVVVDVSHEDPEVKFNWYVDGVEVHNAKTKPREEQYNSTYRVVSVLTVLHQDWLNGKEYKCKVSNKALPAPIEKTISKAKGQPREPQVYTLPPSRDELTKNQVSLTCLVKGFYPSDIAVEWESYGTEWSSYKTTPPVLDSDGSFFLYSKLTVTKSEWQQGFVFSCSVMHEALHNHYTQKSLSLSPELQLEESCAEAQDGELDGLWTT
Molecule B4 returned a dissociation constant (Kd) of 0.61 µM.

B5: 35.d1.24 (protein)
chain: ASTKGPSVFPLAPSSKSTSGGTAALGCLVKDYFPEPVTVSWNSGALTSGVHTFPAVLQSSGLYSLSSVVTVPSSSLGTQTYICNVNHKPSNTKVDKKVEPKSCDKTHTCPPCPAPELLGGPSVFLFPPKPKDTLMISRTPEVTCVVVDVSHEDPEVKFNWYVDGVEVHNAKTKPREEQYNSTYRVVSVLTVLHQDWLNGKEYKCKVSNKALPAPIEKTISKAKGQPREPQVYTLPPSRDELTKNQVSLTCLVKGFYPSDIAVEWESYGTEWSNYKTTPPVLDSDGSFFLYSKLTVSKEEWQQGYVFSCSVMHEALHNHYTQKSLSLSPELQLEESCAEAQDGELDGLWTT
Regarding B5, binding was characterised by a dissociation constant (Kd) of 1.1 µM. This Kd is about 1.8-fold higher than that of the molecule before.

B6: 35.d1.11 (protein)
chain: ASTKGPSVFPLAPSSKSTSGGTAALGCLVKDYFPEPVTVSWNSGALTSGVHTFPAVLQSSGLYSLSSVVTVPSSSLGTQTYICNVNHKPSNTKVDKKVEPKSCDKTHTCPPCPAPELLGGPSVFLFPPKPKDTLMISRTPEVTCVVVDVSHEDPEVKFNWYVDGVEVHNAKTKPREEQYNSTYRVVSVLTVLHQDWLNGKEYKCKVSNKALPAPIEKTISKAKGQPREPQVYTLPPSRDELTKNQVSLTCLVKGFYPSDIAVEWESYGTEWSNYKTTPPVLDSDGSFFLYSKLTVTKSEWQQGYVFSCSVMHEALHNHYTQKSLSLSPELQLEESCAEAQDGELDGLWTT
B6 gave a dissociation constant Kd of 2.5 µM.

B7: 35.d1.18 (protein)
chain: ASTKGPSVFPLAPSSKSTSGGTAALGCLVKDYFPEPVTVSWNSGALTSGVHTFPAVLQSSGLYSLSSVVTVPSSSLGTQTYICNVNHKPSNTKVDKKVEPKSCDKTHTCPPCPAPELLGGPSVFLFPPKPKDTLMISRTPEVTCVVVDVSHEDPEVKFNWYVDGVEVHNAKTKPREEQYNSTYRVVSVLTVLHQDWLNGKEYKCKVSNKALPAPIEKTISKAKGQPREPQVYTLPPSRDELTKNQVSLTCLVKGFYPSDIAVEWESFGTEWSNYKTTPPVLDSDGSFFLYSKLTVSKSEWQQGYVFSCSVMHEALHNHYTQKSLSLSPELQLEESCAEAQDGELDGLWTT
As for B7, the Kd came to 4.4 µM.

B8: 35.d1.19 (protein)
chain: ASTKGPSVFPLAPSSKSTSGGTAALGCLVKDYFPEPVTVSWNSGALTSGVHTFPAVLQSSGLYSLSSVVTVPSSSLGTQTYICNVNHKPSNTKVDKKVEPKSCDKTHTCPPCPAPELLGGPSVFLFPPKPKDTLMISRTPEVTCVVVDVSHEDPEVKFNWYVDGVEVHNAKTKPREEQYNSTYRVVSVLTVLHQDWLNGKEYKCKVSNKALPAPIEKTISKAKGQPREPQVYTLPPSRDELTKNQVSLTCLVKGFYPSDIAVEWESFGTEWVNYKTTPPVLDSDGSFFLYSKLTVSKSEWQQGYVFSCSVMHEALHNHYTQKSLSLSPELQLEESCAEAQDGELDGLWTT
In turn, B8 gave a Kd of 16 µM.

B9: 35.d1.20 (protein)
chain: ASTKGPSVFPLAPSSKSTSGGTAALGCLVKDYFPEPVTVSWNSGALTSGVHTFPAVLQSSGLYSLSSVVTVPSSSLGTQTYICNVNHKPSNTKVDKKVEPKSCDKTHTCPPCPAPELLGGPSVFLFPPKPKDTLMISRTPEVTCVVVDVSHEDPEVKFNWYVDGVEVHNAKTKPREEQYNSTYRVVSVLTVLHQDWLNGKEYKCKVSNKALPAPIEKTISKAKGQPREPQVYTLPPSRDELTKNQVSLTCLVKGFYPSDIAVEWESYGTEWVNYKTTPPVLDSDGSFFLYSKLTVSKSEWQQGFVFSCSVMHEALHNHYTQKSLSLSPELQLEESCAEAQDGELDGLWTT
Turning to B9, the Kd worked out at 3.6 µM.

B10: 35.d1.4 (protein)
chain: ASTKGPSVFPLAPSSKSTSGGTAALGCLVKDYFPEPVTVSWNSGALTSGVHTFPAVLQSSGLYSLSSVVTVPSSSLGTQTYICNVNHKPSNTKVDKKVEPKSCDKTHTCPPCPAPELLGGPSVFLFPPKPKDTLMISRTPEVTCVVVDVSHEDPEVKFNWYVDGVEVHNAKTKPREEQYNSTYRVVSVLTVLHQDWLNGKEYKCKVSNKALPAPIEKTISKAKGQPREPQVYTLPPSRDELTKNQVSLTCLVKGFYPSDIAVEWESFGTEWSSYKTTPPVLDSDGSFFLYSKLTVSKSEWQQGFVFSCSVMHEALHNHYTQKSLSLSPELQLEESCAEAQDGELDGLWTT
As to B10, binding was characterised by a dissociation constant (Kd) of 1.4 µM.

B11: 35.d1.14 (protein)
chain: ASTKGPSVFPLAPSSKSTSGGTAALGCLVKDYFPEPVTVSWNSGALTSGVHTFPAVLQSSGLYSLSSVVTVPSSSLGTQTYICNVNHKPSNTKVDKKVEPKSCDKTHTCPPCPAPELLGGPSVFLFPPKPKDTLMISRTPEVTCVVVDVSHEDPEVKFNWYVDGVEVHNAKTKPREEQYNSTYRVVSVLTVLHQDWLNGKEYKCKVSNKALPAPIEKTISKAKGQPREPQVYTLPPSRDELTKNQVSLTCLVKGFYPSDIAVEWESYGTEWTNYKTTPPVLDSDGSFFLYSKLTVSKSEWQQGFVFSCSVMHEALHNHYTQKSLSLSPELQLEESCAEAQDGELDGLWTT
As for B11, the Kd came to 11.7 µM.

B12: 35.d1.21 (protein)
chain: ASTKGPSVFPLAPSSKSTSGGTAALGCLVKDYFPEPVTVSWNSGALTSGVHTFPAVLQSSGLYSLSSVVTVPSSSLGTQTYICNVNHKPSNTKVDKKVEPKSCDKTHTCPPCPAPELLGGPSVFLFPPKPKDTLMISRTPEVTCVVVDVSHEDPEVKFNWYVDGVEVHNAKTKPREEQYNSTYRVVSVLTVLHQDWLNGKEYKCKVSNKALPAPIEKTISKAKGQPREPQVYTLPPSRDELTKNQVSLTCLVKGFYPSDIAVEWESYGTEWVNYKTTPPVLDSDGSFFLYSKLTVSKSEWQQGYVFSCSVMHEALHNHYTQKSLSLSPELQLEESCAEAQDGELDGLWTT
With B12, the Kd turned out to be 14.1 µM.

B13: 35.d1.17 (protein)
chain: ASTKGPSVFPLAPSSKSTSGGTAALGCLVKDYFPEPVTVSWNSGALTSGVHTFPAVLQSSGLYSLSSVVTVPSSSLGTQTYICNVNHKPSNTKVDKKVEPKSCDKTHTCPPCPAPELLGGPSVFLFPPKPKDTLMISRTPEVTCVVVDVSHEDPEVKFNWYVDGVEVHNAKTKPREEQYNSTYRVVSVLTVLHQDWLNGKEYKCKVSNKALPAPIEKTISKAKGQPREPQVYTLPPSRDELTKNQVSLTCLVKGFYPSDIAVEWESFGTEWTNYKTTPPVLDSDGSFFLYSKLTVSKSEWQQGFVFSCSVMHEALHNHYTQKSLSLSPELQLEESCAEAQDGELDGLWTT
B13 displayed a dissociation constant Kd of 18.8 µM.

B14: 35.d1.22 (protein)
chain: ASTKGPSVFPLAPSSKSTSGGTAALGCLVKDYFPEPVTVSWNSGALTSGVHTFPAVLQSSGLYSLSSVVTVPSSSLGTQTYICNVNHKPSNTKVDKKVEPKSCDKTHTCPPCPAPELLGGPSVFLFPPKPKDTLMISRTPEVTCVVVDVSHEDPEVKFNWYVDGVEVHNAKTKPREEQYNSTYRVVSVLTVLHQDWLNGKEYKCKVSNKALPAPIEKTISKAKGQPREPQVYTLPPSRDELTKNQVSLTCLVKGFYPSDIAVEWESYGNEWSNYKTTPPVLDSDGSFFLYSKLTVSKEEWQQGFVFSCSVMHEALHNHYTQKSLSLSPELQLEESCAEAQDGELDGLWTT
For the molecule B14, the affinity, expressed as Kd, was 5.2 µM.

B15: 35.d1.7 (protein)
chain: ASTKGPSVFPLAPSSKSTSGGTAALGCLVKDYFPEPVTVSWNSGALTSGVHTFPAVLQSSGLYSLSSVVTVPSSSLGTQTYICNVNHKPSNTKVDKKVEPKSCDKTHTCPPCPAPELLGGPSVFLFPPKPKDTLMISRTPEVTCVVVDVSHEDPEVKFNWYVDGVEVHNAKTKPREEQYNSTYRVVSVLTVLHQDWLNGKEYKCKVSNKALPAPIEKTISKAKGQPREPQVYTLPPSRDELTKNQVSLTCLVKGFYPSDIAVEWESYGTEWSSYKTTPPVLDSDGSFFLYSKLTVSKSEWQQGYVFSCSVMHEALHNHYTQKSLSLSPELQLEESCAEAQDGELDGLWTT
In turn, B15 displayed a dissociation constant Kd of 3 µM.
